In PMC10192352 (2023) one finds Kd and koff data, which are given here for one molecule.

In experiment [1] the target is T1, NPNA8 peptide, biotinylated (Plasmodium falciparum, biotin (position not given)).
T1 chain: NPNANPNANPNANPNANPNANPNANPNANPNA
Kind of experiment: BLI; 2:1 binding model.

The target in experiment [2] is T1, NPNA8 peptide, biotinylated. Kind of experiment: BLI; 2:1 binding model.

B1: L9 Fab (Fab, V domains shown)
VH: QVKLVESGGGVVQPGRSLRLSCEASGFIFSTYGMHWVRQAPGKGLEWVAVIWFDGSNIYYADSVKGRFTISRDNSKNTVFMQMDSLRAEDTAVYYCHRNFYDGSGPFDYWGQGTLVTVSS
VL: DIQMTQSPSTLSASVGDRVTITCRASQFISRWLAWYQQKPGKAPKLLIYKASSLESGVPSRFSGSGSETHFTLTISSLQPDDVATYYCQEYTSYGRTFGQGTKVEIK
B1: in experiment [1], the Kd turned out to be 6.26 µM. In experiment [2], this molecule yielded an off-rate (koff) of 0.024 s⁻¹.
